From patent US20250281611A1 (BIOSCEPTRE AUST, published 2025)

Experiments:
CD33 [1] = target: T1, CD33 (UniProt P20138 18-364, limits assumed); assay: flow cytometry, MOLM-13 cells, anti-His-FITC detection
T1 construct: whole, on cells; also called Siglec-3; CD33 on MOLM-13 cells
Procedure: (§1) MOLM-13 cells were incubated with different CD33 BRIDGE variants at saturating concentrations. […] The MFI intensity correlates with the number of secondary antibodies bound to the CD33 BRIDGE variants that are only detected if they are bound to the MOLM-13 cells. MFI: median fluorescence intensity. BLItz: Bio-Layer interferometry (BLI) technology using HIS-tag identification tips. […] The higher the MFIR, the stronger the binding.

nfP2X7 CAR 1 [2] = target: T2, nfP2X7 CAR 1; assay: flow cytometry, CAR T cells, anti-His-FITC, EGFR+ over EGFR- cells
T2 construct: Expressed on T cells with truncated EGFR as marker gene; also called anti-nfP2X7 receptor CAR 1; nfP2X7 targeted CAR on EGFR+ T cells
Procedure: (§2) nfP2X₇ CAR T cells were incubated with different BRiDGE variants at saturating concentrations. […] The MFI intensity correlates with the number of secondary bound antibodies bound to the BRiDGEs that are only detected if they are bound to the CAR T cells. EGFR was used as a marker gene to detect the CAR expression. Thus, the EGFR+ T cell population was defined as the CAR expressing cells and the EGFR− T cell population was defined as the CAR negative subset. MFI: median fluorescence intensity. EGFR: epidermal growth factor receptor. BLItz: Bio-Layer interferometry (BLI) technology using HIS-tag identification tips. HIS-tag MFI Ratio: relative index that is calculated by the testing condition MFI divided by the control MFI, which corresponds to the MFI measured on EGFR+ T cells (defined as CAR positive cells) divided by the MFI measured on the EGFR− T cells (defined as CAR negative cells). […] The higher the MFIR, the stronger the binding.

nfP2X7 CAR 1 [3] = target: T2, nfP2X7 CAR 1; assay: flow cytometry, nfP2X7 CAR T cells (EGFR+), anti-His-FITC detection
Procedure: as §2

nfP2X7 CAR 1 [4] = target: T2, nfP2X7 CAR 1; assay: flow cytometry, CAR T cells, anti-His-FITC, EGFR+ MFI over background 0.4
Procedure: as §2

CD33 [5] = target: T1, CD33; assay: flow cytometry, MOLM-13 cells, anti-His-FITC detection, ratio to no bridge
Procedure: as §1

T1 sequence (P20138 18-364 limits assumed): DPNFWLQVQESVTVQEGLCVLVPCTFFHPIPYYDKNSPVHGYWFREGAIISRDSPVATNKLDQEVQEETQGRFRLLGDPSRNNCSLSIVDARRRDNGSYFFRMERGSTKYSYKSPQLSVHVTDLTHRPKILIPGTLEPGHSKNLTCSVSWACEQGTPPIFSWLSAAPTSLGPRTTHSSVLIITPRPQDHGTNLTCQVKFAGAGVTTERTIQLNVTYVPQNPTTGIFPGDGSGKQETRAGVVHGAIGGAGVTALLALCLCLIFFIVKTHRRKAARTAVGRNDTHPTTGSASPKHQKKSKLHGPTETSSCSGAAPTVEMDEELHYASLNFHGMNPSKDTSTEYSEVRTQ

MFI HisTag FITC (CD33 [1])	HisTag MFI Ratio of EGFR+/EGFR- (nfP2X7 CAR 1 [2])	MFI HisTag FITC in EGFR+ Population (nfP2X7 CAR 1 [3])	HisTag MFI Ratio (background 0.4) (nfP2X7 CAR 1 [4])	MFIR HisTag FITC (CD33 [5])	Binder
5.75	2.8	1.22	3.1	8.58	CD33 BRIDGE variant B26 (Fab, V domains shown, Lintuzumab-based Fab bridging molecule) VH: QVQLVQSGAEVKKPGSSVKVSCKASGYTFTDYNMHWVRQAPGQGLEWIGYIYPYNGGTGYNQKFKSKATITADESTNTAYMELSSLRSEDTAVYYCARGRPAMDYWGQGTLVTVSS VL: DIQMTQSPSSLSASVGDRVTITCRASESVDNYGISFMNWFQQKPGKAPKLLIYAASNQGSGVPSRFSGSGSGTDFTLTISSLQPDDFATYYCQQSKEVPWTFGQGTKVEIKR
6.04	2.8	1.14	2.9	9.01	CD33 BRIDGE variant B21 (Fab, Lintuzumab-based Fab bridging molecule) light: DFPGHNYTTRNILPGLNITSGGGGSEPKSSDKTHTDIQMTQSPSSLSASVGDRVTITCRASESVDNYGISFMNWFQQKPGKAPKLLIYAASNQGSGVPSRFSGSGSGTDFTLTISSLQPDDFATYYCQQSKEVPWTFGQGTKVEIKRTVAAPSVFIFPPSDEQLKSGTASVVCLLNNFYPREAKVQWKVDNALQSGNSQESVTEQDSKDSTYSLSSTLTLSKADYEKHKVYACEVTHQGLSSPVTKSFNRGECHHHHHH heavy: QVQLVQSGAEVKKPGSSVKVSCKASGYTFTDYNMHWVRQAPGQGLEWIGYIYPYNGGTGYNQKFKSKATITADESTNTAYMELSSLRSEDTAVYYCARGRPAMDYWGQGTLVTVSSASTKGPSVFPLAPSSKSTSGGTAALGCLVKDYFPEPVTVSWNSGALTSGVHTFPAVLQSSGLYSLSSVVTVPSSSLGTQTYICNVNHKPSNTKVDKKVEPKSCHHHHHH
5.38	3.4	1.73	4.3	8.03	CD33 BRIDGE variant B29 (Fab, Lintuzumab-based Fab bridging molecule) light: DFPGHNYTTRNILPGLNITSTFHKTSGSGKGSEPKSSDKTHTGSDIQMTQSPSSLSASVGDRVTITCRASESVDNYGISFMNWFQQKPGKAPKLLIYAASNQGSGVPSRFSGSGSGTDFTLTISSLQPDDFATYYCQQSKEVPWTFGQGTKVEIKRTVAAPSVFIFPPSDEQLKSGTASVVCLLNNFYPREAKVQWKVDNALQSGNSQESVTEQDSKDSTYSLSSTLTLSKADYEKHKVYACEVTHQGLSSPVTKSFNRGECHHHHHH heavy: QVQLVQSGAEVKKPGSSVKVSCKASGYTFTDYNMHWVRQAPGQGLEWIGYIYPYNGGTGYNQKFKSKATITADESTNTAYMELSSLRSEDTAVYYCARGRPAMDYWGQGTLVTVSSASTKGPSVFPLAPSSKSTSGGTAALGCLVKDYFPEPVTVSWNSGALTSGVHTFPAVLQSSGLYSLSSVVTVPSSSLGTQTYICNVNHKPSNTKVDKKVEPKSCHHHHHH
5.55	2.8	1.2	3	8.28	CD33 BRIDGE variant B27 (Fab, Lintuzumab-based Fab bridging molecule) light: DFPGHNYTTRNILPGLNITSGGGGSEPKSSDKTHTGSDIQMTQSPSSLSASVGDRVTITCRASESVDNYGISFMNWFQQKPGKAPKLLIYAASNQGSGVPSRFSGSGSGTDFTLTISSLQPDDFATYYCQQSKEVPWTFGQGTKVEIKRTVAAPSVFIFPPSDEQLKSGTASVVCLLNNFYPREAKVQWKVDNALQSGNSQESVTEQDSKDSTYSLSSTLTLSKADYEKHKVYACEVTHQGLSSPVTKSFNRGECHHHHHH heavy: QVQLVQSGAEVKKPGSSVKVSCKASGYTFTDYNMHWVRQAPGQGLEWIGYIYPYNGGTGYNQKFKSKATITADESTNTAYMELSSLRSEDTAVYYCARGRPAMDYWGQGTLVTVSSASTKGPSVFPLAPSSKSTSGGTAALGCLVKDYFPEPVTVSWNSGALTSGVHTFPAVLQSSGLYSLSSVVTVPSSSLGTQTYICNVNHKPSNTKVDKKVEPKSCHHHHHH
6.29	3.3	1.63	4.1	9.39	CD33 BRIDGE variant B30 (Fab, Lintuzumab-based Fab bridging molecule) light: DFPGHNYTTRNILPGLNITSTFHKTSGSGKGGGGSEPKSSDKTHTGSDIQMTQSPSSLSASVGDRVTITCRASESVDNYGISFMNWFQQKPGKAPKLLIYAASNQGSGVPSRFSGSGSGTDFTLTISSLQPDDFATYYCQQSKEVPWTFGQGTKVEIKRTVAAPSVFIFPPSDEQLKSGTASVVCLLNNFYPREAKVQWKVDNALQSGNSQESVTEQDSKDSTYSLSSTLTLSKADYEKHKVYACEVTHQGLSSPVTKSFNRGECHHHHHH heavy: QVQLVQSGAEVKKPGSSVKVSCKASGYTFTDYNMHWVRQAPGQGLEWIGYIYPYNGGTGYNQKFKSKATITADESTNTAYMELSSLRSEDTAVYYCARGRPAMDYWGQGTLVTVSSASTKGPSVFPLAPSSKSTSGGTAALGCLVKDYFPEPVTVSWNSGALTSGVHTFPAVLQSSGLYSLSSVVTVPSSSLGTQTYICNVNHKPSNTKVDKKVEPKSCHHHHHH
6.25	3.5	1.82	4.6	9.33	CD33 BRIDGE variant B24 (Fab, Lintuzumab-based Fab bridging molecule) light: DFPGHNYTTRNILPGLNITSTFHKTSGSGKGGGGSEPKSSDKTHTDIQMTQSPSSLSASVGDRVTITCRASESVDNYGISFMNWFQQKPGKAPKLLIYAASNQGSGVPSRFSGSGSGTDFTLTISSLQPDDFATYYCQQSKEVPWTFGQGTKVEIKRTVAAPSVFIFPPSDEQLKSGTASVVCLLNNFYPREAKVQWKVDNALQSGNSQESVTEQDSKDSTYSLSSTLTLSKADYEKHKVYACEVTHQGLSSPVTKSFNRGECHHHHHH heavy: QVQLVQSGAEVKKPGSSVKVSCKASGYTFTDYNMHWVRQAPGQGLEWIGYIYPYNGGTGYNQKFKSKATITADESTNTAYMELSSLRSEDTAVYYCARGRPAMDYWGQGTLVTVSSASTKGPSVFPLAPSSKSTSGGTAALGCLVKDYFPEPVTVSWNSGALTSGVHTFPAVLQSSGLYSLSSVVTVPSSSLGTQTYICNVNHKPSNTKVDKKVEPKSCHHHHHH
6.82	3.4	1.71	4.3	10.2	CD33 BRIDGE variant B23 (Fab, Lintuzumab-based Fab bridging molecule) light: DFPGHNYTTRNILPGLNITSTFHKTSGSGKGSEPKSSDKTHTDIQMTQSPSSLSASVGDRVTITCRASESVDNYGISFMNWFQQKPGKAPKLLIYAASNQGSGVPSRFSGSGSGTDFTLTISSLQPDDFATYYCQQSKEVPWTFGQGTKVEIKRTVAAPSVFIFPPSDEQLKSGTASVVCLLNNFYPREAKVQWKVDNALQSGNSQESVTEQDSKDSTYSLSSTLTLSKADYEKHKVYACEVTHQGLSSPVTKSFNRGECHHHHHH heavy: QVQLVQSGAEVKKPGSSVKVSCKASGYTFTDYNMHWVRQAPGQGLEWIGYIYPYNGGTGYNQKFKSKATITADESTNTAYMELSSLRSEDTAVYYCARGRPAMDYWGQGTLVTVSSASTKGPSVFPLAPSSKSTSGGTAALGCLVKDYFPEPVTVSWNSGALTSGVHTFPAVLQSSGLYSLSSVVTVPSSSLGTQTYICNVNHKPSNTKVDKKVEPKSCHHHHHH
4.61	3.1	1.44	3.6	6.88	CD33 BRIDGE variant B22 (Fab, Lintuzumab-based Fab bridging molecule) light: DFPGHNYTTRNILPGLNITSTFHKTSGSGKEPKSSDKTHTDIQMTQSPSSLSASVGDRVTITCRASESVDNYGISFMNWFQQKPGKAPKLLIYAASNQGSGVPSRFSGSGSGTDFTLTISSLQPDDFATYYCQQSKEVPWTFGQGTKVEIKRTVAAPSVFIFPPSDEQLKSGTASVVCLLNNFYPREAKVQWKVDNALQSGNSQESVTEQDSKDSTYSLSSTLTLSKADYEKHKVYACEVTHQGLSSPVTKSFNRGECHHHHHH heavy: QVQLVQSGAEVKKPGSSVKVSCKASGYTFTDYNMHWVRQAPGQGLEWIGYIYPYNGGTGYNQKFKSKATITADESTNTAYMELSSLRSEDTAVYYCARGRPAMDYWGQGTLVTVSSASTKGPSVFPLAPSSKSTSGGTAALGCLVKDYFPEPVTVSWNSGALTSGVHTFPAVLQSSGLYSLSSVVTVPSSSLGTQTYICNVNHKPSNTKVDKKVEPKSCHHHHHH
6.33	3.2	1.58	4	9.45	CD33 BRIDGE variant B28 (Fab, Lintuzumab-based Fab bridging molecule) light: DFPGHNYTTRNILPGLNITSTFHKTSGSGKEPKSSDKTHTGSDIQMTQSPSSLSASVGDRVTITCRASESVDNYGISFMNWFQQKPGKAPKLLIYAASNQGSGVPSRFSGSGSGTDFTLTISSLQPDDFATYYCQQSKEVPWTFGQGTKVEIKRTVAAPSVFIFPPSDEQLKSGTASVVCLLNNFYPREAKVQWKVDNALQSGNSQESVTEQDSKDSTYSLSSTLTLSKADYEKHKVYACEVTHQGLSSPVTKSFNRGECHHHHHH heavy: QVQLVQSGAEVKKPGSSVKVSCKASGYTFTDYNMHWVRQAPGQGLEWIGYIYPYNGGTGYNQKFKSKATITADESTNTAYMELSSLRSEDTAVYYCARGRPAMDYWGQGTLVTVSSASTKGPSVFPLAPSSKSTSGGTAALGCLVKDYFPEPVTVSWNSGALTSGVHTFPAVLQSSGLYSLSSVVTVPSSSLGTQTYICNVNHKPSNTKVDKKVEPKSCHHHHHH
